Source: publication PMC5566378, “The human IL-17A/F heterodimer: a two-faced cytokine with unique receptor recognition properties” (Scientific Reports, 2017)

T1: human IL-17RC extracellular domain (human, UniProt Q8NAC3-2 21-467)
T1 construct: human IL-17RC full-length extracellular domain, residues 21-467 of UniProt entry Q8NAC3-2, secreted with the CD33 signal peptide; numbers count on: isoform Q8NAC3-2; also called IL-17RC ECD; source: GnTI-deficient HEK293S, transient expression, purified (anti-APP antibody column, Resource-Q, Superdex-200 SEC)
T1 sequence (looked up): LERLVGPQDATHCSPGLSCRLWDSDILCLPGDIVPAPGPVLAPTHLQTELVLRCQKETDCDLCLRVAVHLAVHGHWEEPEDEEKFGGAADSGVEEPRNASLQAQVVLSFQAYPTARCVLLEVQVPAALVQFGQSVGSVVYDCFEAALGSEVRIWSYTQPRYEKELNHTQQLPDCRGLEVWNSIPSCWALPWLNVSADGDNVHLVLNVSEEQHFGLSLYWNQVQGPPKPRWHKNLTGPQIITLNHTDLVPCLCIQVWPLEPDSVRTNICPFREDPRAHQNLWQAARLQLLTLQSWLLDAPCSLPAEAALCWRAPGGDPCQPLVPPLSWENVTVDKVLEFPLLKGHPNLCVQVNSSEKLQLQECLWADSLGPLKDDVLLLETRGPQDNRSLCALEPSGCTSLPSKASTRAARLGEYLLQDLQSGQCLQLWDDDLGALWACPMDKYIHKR

T2: human IL-17RC extracellular domain (human, UniProt Q8NAC3-2 21-467)
T2 construct: human IL-17RC, full-length extracellular domain, residues 21-467 of UniProt Q8NAC3-2, cloned behind the CD33 signal peptide; numbers count on: isoform Q8NAC3-2; also called IL-17RC ECD; IL-17RC receptor
T2 sequence (looked up): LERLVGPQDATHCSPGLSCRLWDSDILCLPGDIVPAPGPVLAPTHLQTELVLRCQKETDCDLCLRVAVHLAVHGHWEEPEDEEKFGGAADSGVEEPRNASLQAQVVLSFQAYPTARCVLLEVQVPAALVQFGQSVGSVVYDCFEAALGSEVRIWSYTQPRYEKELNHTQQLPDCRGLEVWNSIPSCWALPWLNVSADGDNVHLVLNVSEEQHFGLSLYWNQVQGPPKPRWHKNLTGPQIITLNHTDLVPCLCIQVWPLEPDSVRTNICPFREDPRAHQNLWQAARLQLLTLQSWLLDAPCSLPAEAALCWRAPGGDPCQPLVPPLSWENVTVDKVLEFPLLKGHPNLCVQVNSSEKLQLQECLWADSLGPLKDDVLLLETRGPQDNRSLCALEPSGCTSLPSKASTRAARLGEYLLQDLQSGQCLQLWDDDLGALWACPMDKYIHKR


Key:
Details in all cases: both partners purified
[1] = target: T1, human IL-17RC extracellular domain; assay: SPR; Biacore 8K; IL-17RC ECD immobilised (about 500 RU) by amine coupling on a CM4 chip; cytokines as analytes in PBS pH 7.4, 3 mM EDTA, 0.05% Tween20; 20 °C, 30 µl/min; 1:1 Langmuir model, steady-state analysis for variants of weaker affinity; mean of at least five independent experiments
[2] = target: T2, human IL-17RC extracellular domain; assay: SPR; Biacore 8K; IL-17RC ECD amine-coupled on a CM4 chip (about 500 RU); cytokines as analytes in PBS pH 7.4, 3 mM EDTA, 0.05% Tween20; 20 °C, 30 µl/min; 1:1 Langmuir model or steady-state analysis
[3] = target: T3, human IL-17RA extracellular domain (human, UniProt Q96F46 33-320, biotin on the Avi-tag (E. coli BirA), for the SPR measurements only); assay: SPR; Biacore 8K; biotinylated IL-17RA ECD immobilised on a streptavidin chip (about 500 RU); cytokines as analytes in PBS pH 7.4, 3 mM EDTA, 0.05% Tween20; 20 °C, 30 µl/min; 1:1 Langmuir model or steady-state analysis
T3 construct: human IL-17RA, full-length extracellular domain, residues 33-320 of UniProt Q96F46, cloned behind the CD33 signal peptide; The same construct was used unbiotinylated for the complex and its crystals (treated with PNGaseF and Endoglycosidase H) and biotinylated for SPR; also called IL-17RA ECD; IL-17RA receptor; source: GnTI-deficient HEK293S, transient expression, secreted, purified (anti-APP …)

[4] = target: T4, human IL-17RA extracellular domain (human, UniProt Q96F46 33-320, biotin on the Avi-tag (BirA) for SPR measurements); assay: SPR; Biacore 8K; biotinylated IL-17RA ECD immobilised (about 500 RU) on a streptavidin SA chip; cytokines as analytes in PBS pH 7.4, 3 mM EDTA, 0.05% Tween20; 20 °C, 30 µl/min; 1:1 Langmuir model, steady-state analysis for variants of weaker affinity; mean of at least five independent experiments
T4 construct: human IL-17RA full-length extracellular domain, residues 33-320 of UniProt Q96F46, secreted with the CD33 signal peptide; The construct is described 'for crystallization'; the SPR sample is the same ECD biotinylated on its Avi-tag; In the crystal the complex was treated with PNGaseF and Endoglycosidase H and biotinylation is not mentioned; also called IL-17RA ECD; source: GnTI-deficient HEK293S, …

Row | Kd [1] | fold reduction in binding affinity against wild-type IL-17F [2] | fold reduction in affinity against wild-type IL-17F [3] | Kd [4] | Binder
1 | 4 nM | – | – | – | human IL-17F homodimer, wild type (ligand, UniProt Q96PD4 31-163, looked up, human IL-17F, residues 31-163 of UniProt Q96PD4, secreted with the CD33 signal peptide (P20138-1); also called IL-17F wt) RKIPKVGHTFFQKPESCPPVPGGSMKLDIGIINENQRVSMSRNIESRSTSPWNYTVTWDPNRYPSEVVQAQCRNLGCINAQGKEDISMNSVPIQQETLVVRRKHQGCSVSFQLEKVLVTVGCTCVTPVIHHVQ
2 | – | ≥ 200 fold | > 5 fold | – | human IL-17F homodimer, Arg77 to alanine mutant (ligand, UniProt Q96PD4 31-163, looked up, human IL-17F, residues 31-163 of UniProt Q96PD4, cloned behind the CD33 signal peptide and the APP6-tag, R77A; also called IL-17F R77A; point mutant of the IL-17F homodimer; source: HEK293S, transient expression, secreted, purified) RKIPKVGHTFFQKPESCPPVPGGSMKLDIGIINENQRVSMSRNIESASTSPWNYTVTWDPNRYPSEVVQAQCRNLGCINAQGKEDISMNSVPIQQETLVVRRKHQGCSVSFQLEKVLVTVGCTCVTPVIHHVQ
3 | 905 nM | – | – | 726 nM | human IL-17F homodimer, R77A (ligand, UniProt Q96PD4 31-163, looked up, human IL-17F, residues 31-163 of UniProt Q96PD4, secreted with the CD33 signal peptide, Arg77 to alanine; also called IL-17F R77A; source: HEK293S, transient expression, purified (as the wild type)) RKIPKVGHTFFQKPESCPPVPGGSMKLDIGIINENQRVSMSRNIESASTSPWNYTVTWDPNRYPSEVVQAQCRNLGCINAQGKEDISMNSVPIQQETLVVRRKHQGCSVSFQLEKVLVTVGCTCVTPVIHHVQ
